Source: patent US20220289850 (published 2022)

Target: T1, human integrin avb8 (human)
T1 chain 1: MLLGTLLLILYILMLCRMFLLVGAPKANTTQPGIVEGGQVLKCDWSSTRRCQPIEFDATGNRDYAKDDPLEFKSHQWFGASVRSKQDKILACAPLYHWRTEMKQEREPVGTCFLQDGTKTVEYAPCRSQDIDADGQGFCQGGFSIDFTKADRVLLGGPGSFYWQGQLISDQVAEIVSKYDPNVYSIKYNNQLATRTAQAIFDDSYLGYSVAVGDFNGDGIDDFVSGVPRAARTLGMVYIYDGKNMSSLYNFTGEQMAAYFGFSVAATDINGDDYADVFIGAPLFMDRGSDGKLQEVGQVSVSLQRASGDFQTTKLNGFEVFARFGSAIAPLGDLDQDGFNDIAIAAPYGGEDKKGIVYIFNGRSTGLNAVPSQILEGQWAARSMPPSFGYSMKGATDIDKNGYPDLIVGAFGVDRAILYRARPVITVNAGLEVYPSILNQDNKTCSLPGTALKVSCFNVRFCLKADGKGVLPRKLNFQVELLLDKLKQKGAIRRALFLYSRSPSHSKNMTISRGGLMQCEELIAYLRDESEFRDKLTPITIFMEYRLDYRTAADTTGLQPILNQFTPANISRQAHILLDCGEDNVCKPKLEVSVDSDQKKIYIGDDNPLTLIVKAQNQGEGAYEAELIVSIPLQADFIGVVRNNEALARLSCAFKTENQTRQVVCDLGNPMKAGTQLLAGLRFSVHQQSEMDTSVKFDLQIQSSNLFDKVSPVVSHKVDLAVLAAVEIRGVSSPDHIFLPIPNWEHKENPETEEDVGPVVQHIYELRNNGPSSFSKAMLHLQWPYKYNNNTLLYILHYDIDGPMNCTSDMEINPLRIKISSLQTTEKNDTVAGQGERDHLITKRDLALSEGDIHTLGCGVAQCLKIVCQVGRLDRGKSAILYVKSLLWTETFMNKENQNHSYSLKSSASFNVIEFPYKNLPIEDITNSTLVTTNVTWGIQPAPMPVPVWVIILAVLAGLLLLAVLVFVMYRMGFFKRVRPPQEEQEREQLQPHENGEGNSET
T1 chain 2: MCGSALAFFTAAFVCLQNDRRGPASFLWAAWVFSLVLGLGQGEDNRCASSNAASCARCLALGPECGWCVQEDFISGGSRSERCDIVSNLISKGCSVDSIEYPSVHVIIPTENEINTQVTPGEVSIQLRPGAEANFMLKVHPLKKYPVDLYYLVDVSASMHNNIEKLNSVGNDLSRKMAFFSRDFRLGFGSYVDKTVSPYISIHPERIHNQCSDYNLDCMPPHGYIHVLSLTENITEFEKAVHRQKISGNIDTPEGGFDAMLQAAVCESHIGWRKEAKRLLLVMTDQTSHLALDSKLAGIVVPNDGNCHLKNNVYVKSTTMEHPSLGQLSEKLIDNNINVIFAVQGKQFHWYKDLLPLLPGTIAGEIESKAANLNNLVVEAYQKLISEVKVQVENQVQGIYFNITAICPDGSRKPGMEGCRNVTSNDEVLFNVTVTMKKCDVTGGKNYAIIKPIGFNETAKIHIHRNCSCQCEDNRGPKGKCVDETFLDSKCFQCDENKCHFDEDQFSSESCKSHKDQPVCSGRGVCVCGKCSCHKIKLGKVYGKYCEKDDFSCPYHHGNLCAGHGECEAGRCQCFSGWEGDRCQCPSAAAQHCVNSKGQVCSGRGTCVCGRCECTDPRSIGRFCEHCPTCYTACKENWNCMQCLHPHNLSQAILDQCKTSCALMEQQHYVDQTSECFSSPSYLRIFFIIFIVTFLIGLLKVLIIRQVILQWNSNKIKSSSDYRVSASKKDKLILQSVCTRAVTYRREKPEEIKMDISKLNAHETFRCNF
Assay: SPR

B1: ADWA11 2.4 Fab (antibody, V domains shown)
VH: EVQLVESGGGLVQPGGSLRLSCAASGFNIKDYYMNWVRQAPGKGLEWVGWIDPDQGNTIYEPKFQGRFTISADTSKNSAYLQMNSLRAEDTAVYYCARRLLMDYWGQGTLVTVSS
VL: DIQMTQSPSSLSASVGDRVTITCRSTKSLSHFNGNTYLFWYQQKPGKAPKRLIYYMSSLASGVPSRFSGSGSGTDFTLTISSLQPEDFATYYCQQSLEYPFTFGGGTKVEIK
**Q.** Which Kd does the source give for B1 here?
**A.** < 0.1 nM
